Measurements: the supplement of paper PMC9112550, “Optimization of the antimicrobial peptide Bac7 by deep mutational scanning” (BMC Biology, 2022)

System: Escherichia coli TOP10
Experiment: shrunken log2 fold change of peptide-encoding DNA abundance (4.5 h post-induction vs induction); higher = less antimicrobial activity (less host growth inhibition)
Conditions: time post-induction: 4.5 h; library: site-saturation at positions 5, 18, 19, 20
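Also: peptides expressed intracellularly from a pBAD plasmid library in pooled LB shake-flask culture, induced with 0.3% L-arabinose, DNA abundance read by NGS, three biological replicates, DESeq2 with apeglm shrinkage.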

Sequence	shrunken log2 fold change
RRIRQRPPRLPRPRPRPHKQPRP	-0.608
RRIRQRPPRLPRPRPRPHKSPRP	-0.0741
RRIRQRPPRLPRPRPRPHLLPRP	0.006
RRIRQRPPRLPRPRPRPHMNPRP	-0.76
RRIRQRPPRLPRPRPRPHPVPRP	0.0674
RRIRQRPPRLPRPRPRPHQQPRP	-0.101
RRIRQRPPRLPRPRPRPHSHPRP	0.0496
RRIRQRPPRLPRPRPRPHTWPRP	-0.206
RRIRQRPPRLPRPRPRPHWNPRP	-0.703
RRIRQRPPRLPRPRPRPHYGPRP	0.0133
RRIRQRPPRLPRPRPRPIASPRP	-0.0483
RRIRQRPPRLPRPRPRPIENPRP	0.219
RRIRQRPPRLPRPRPRPIHFPRP	-0.236
RRIRQRPPRLPRPRPRPILFPRP	0.0255
RRIRQRPPRLPRPRPRPILIPRP	-0.521
RRIRQRPPRLPRPRPRPIMSPRP	0.0933
RRIRQRPPRLPRPRPRPINIPRP	-0.21
RRIRQRPPRLPRPRPRPINKPRP	-0.318
RRIRQRPPRLPRPRPRPIPCPRP	-0.244
RRIRQRPPRLPRPRPRPIPKPRP	-0.0574
RRIRQRPPRLPRPRPRPIQSPRP	0.0147
RRIRQRPPRLPRPRPRPIRQPRP	0.0167
RRIRQRPPRLPRPRPRPISCPRP	-0.00146
RRIRQRPPRLPRPRPRPITTPRP	-0.0809
RRIRQRPPRLPRPRPRPIVNPRP	-0.0197

Sequence	shrunken log2 fold change
RRIRQRPPRLPRPRPRPIVTPRP	-0.364
RRIRQRPPRLPRPRPRPIVYPRP	-0.311
RRIRQRPPRLPRPRPRPIWAPRP	-0.0792
RRIRQRPPRLPRPRPRPIYEPRP	-0.0255
RRIRQRPPRLPRPRPRPKCRPRP	-0.0264
RRIRQRPPRLPRPRPRPKELPRP	-0.534
RRIRQRPPRLPRPRPRPKFCPRP	-0.0186
RRIRQRPPRLPRPRPRPKFNPRP	-0.271
RRIRQRPPRLPRPRPRPKFSPRP	-0.914
RRIRQRPPRLPRPRPRPKHNPRP	-0.368
RRIRQRPPRLPRPRPRPKIHPRP	-0.558
RRIRQRPPRLPRPRPRPKILPRP	-0.0155
RRIRQRPPRLPRPRPRPKIWPRP	0.362
RRIRQRPPRLPRPRPRPKKAPRP	-0.15
RRIRQRPPRLPRPRPRPKKKPRP	-0.0791
RRIRQRPPRLPRPRPRPKLAPRP	-0.0518
RRIRQRPPRLPRPRPRPKMEPRP	-0.0177
RRIRQRPPRLPRPRPRPKMSPRP	-0.101
RRIRQRPPRLPRPRPRPKNDPRP	-0.379
RRIRQRPPRLPRPRPRPKNHPRP	-0.23
RRIRQRPPRLPRPRPRPKPAPRP	0.357
RRIRQRPPRLPRPRPRPKPKPRP	0.278
RRIRQRPPRLPRPRPRPKPMPRP	0.382
RRIRQRPPRLPRPRPRPKPNPRP	0.301
RRIRQRPPRLPRPRPRPKQHPRP	-0.239

Sequence	shrunken log2 fold change
RRIRQRPPRLPRPRPRPKQNPRP	-0.0189
RRIRQRPPRLPRPRPRPKSKPRP	-0.123
RRIRQRPPRLPRPRPRPKSNPRP	-0.29
RRIRQRPPRLPRPRPRPKSYPRP	-0.0861
RRIRQRPPRLPRPRPRPKTFPRP	-0.259
RRIRQRPPRLPRPRPRPKWFPRP	-0.107
RRIRQRPPRLPRPRPRPKWPPRP	0.166
RRIRQRPPRLPRPRPRPKYDPRP	-0.165
RRIRQRPPRLPRPRPRPKYFPRP	0.0276
RRIRQRPPRLPRPRPRPKYHPRP	-0.171
RRIRQRPPRLPRPRPRPLAHPRP	-0.0319
RRIRQRPPRLPRPRPRPLDVPRP	-0.0496
RRIRQRPPRLPRPRPRPLDYPRP	0.13
RRIRQRPPRLPRPRPRPLFCPRP	0.213
RRIRQRPPRLPRPRPRPLFFPRP	-0.00141
RRIRQRPPRLPRPRPRPLFGPRP	0.107
RRIRQRPPRLPRPRPRPLFRPRP	-0.227
RRIRQRPPRLPRPRPRPLFWPRP	-0.23
RRIRQRPPRLPRPRPRPLHCPRP	-0.183
RRIRQRPPRLPRPRPRPLHHPRP	-0.73
RRIRQRPPRLPRPRPRPLHIPRP	-0.423
RRIRQRPPRLPRPRPRPLHMPRP	-0.384
RRIRQRPPRLPRPRPRPLHQPRP	-0.172
RRIRQRPPRLPRPRPRPLHVPRP	-0.324
RRIRQRPPRLPRPRPRPLIFPRP	-0.432

Sequence	shrunken log2 fold change
RRIRQRPPRLPRPRPRPLIGPRP	-0.285
RRIRQRPPRLPRPRPRPLQCPRP	-0.357
RRIRQRPPRLPRPRPRPLQHPRP	0.164
RRIRQRPPRLPRPRPRPLQTPRP	-0.339
RRIRQRPPRLPRPRPRPLQYPRP	-0.0199
RRIRQRPPRLPRPRPRPLRQPRP	0.0855
RRIRQRPPRLPRPRPRPLSAPRP	0.0436
RRIRQRPPRLPRPRPRPLSPPRP	-0.109
RRIRQRPPRLPRPRPRPLTWPRP	-0.21
RRIRQRPPRLPRPRPRPLTYPRP	-0.13
RRIRQRPPRLPRPRPRPLVAPRP	0.034
RRIRQRPPRLPRPRPRPLVLPRP	0.00943
RRIRQRPPRLPRPRPRPLVWPRP	0.152
RRIRQRPPRLPRPRPRPLYCPRP	-0.672
RRIRQRPPRLPRPRPRPLYGPRP	0.0686
RRIRQRPPRLPRPRPRPLYNPRP	-0.796
RRIRQRPPRLPRPRPRPMACPRP	-0.159
RRIRQRPPRLPRPRPRPMDEPRP	0.0268
RRIRQRPPRLPRPRPRPMGPPRP	-0.0254
RRIRQRPPRLPRPRPRPMGTPRP	-0.00257
RRIRQRPPRLPRPRPRPMGVPRP	-0.00411
RRIRQRPPRLPRPRPRPMISPRP	-0.0269
RRIRQRPPRLPRPRPRPMITPRP	-0.166
RRIRQRPPRLPRPRPRPMKNPRP	-0.124
RRIRQRPPRLPRPRPRPMKWPRP	0.273

Sequence	shrunken log2 fold change
RRIRQRPPRLPRPRPRPMLGPRP	0.0371
RRIRQRPPRLPRPRPRPMNYPRP	-0.182
RRIRQRPPRLPRPRPRPMPRPRP	0.0657
RRIRQRPPRLPRPRPRPMQRPRP	0.416
RRIRQRPPRLPRPRPRPMRGPRP	0.904
RRIRQRPPRLPRPRPRPMSAPRP	-0.107
RRIRQRPPRLPRPRPRPMSCPRP	0.029
RRIRQRPPRLPRPRPRPMSQPRP	-0.0185
RRIRQRPPRLPRPRPRPMYFPRP	-0.448
RRIRQRPPRLPRPRPRPMYPPRP	-0.329
RRIRQRPPRLPRPRPRPMYTPRP	-0.639
RRIRQRPPRLPRPRPRPNAKPRP	-0.0176
RRIRQRPPRLPRPRPRPNAQPRP	0.0116
RRIRQRPPRLPRPRPRPNCCPRP	0.0381
RRIRQRPPRLPRPRPRPNCGPRP	0.0184
RRIRQRPPRLPRPRPRPNCVPRP	-0.0688
RRIRQRPPRLPRPRPRPNFAPRP	0.24
RRIRQRPPRLPRPRPRPNFFPRP	0.313
RRIRQRPPRLPRPRPRPNGNPRP	-0.405
RRIRQRPPRLPRPRPRPNGYPRP	-0.121
RRIRQRPPRLPRPRPRPNHFPRP	0.189
RRIRQRPPRLPRPRPRPNIFPRP	-0.496
RRIRQRPPRLPRPRPRPNKMPRP	-0.0321
RRIRQRPPRLPRPRPRPNLNPRP	-0.221
RRIRQRPPRLPRPRPRPNNMPRP	-0.378

Sequence	shrunken log2 fold change
RRIRQRPPRLPRPRPRPNNPPRP	-0.282
RRIRQRPPRLPRPRPRPNNSPRP	-0.904
RRIRQRPPRLPRPRPRPNNTPRP	-0.578
RRIRQRPPRLPRPRPRPNPAPRP	0.17
RRIRQRPPRLPRPRPRPNPHPRP	0.121
RRIRQRPPRLPRPRPRPNPYPRP	-0.0811
RRIRQRPPRLPRPRPRPNQGPRP	0.084
RRIRQRPPRLPRPRPRPNQPPRP	-0.0757
RRIRQRPPRLPRPRPRPNRAPRP	0.025
RRIRQRPPRLPRPRPRPNRCPRP	-0.0278
RRIRQRPPRLPRPRPRPNSMPRP	-0.25
RRIRQRPPRLPRPRPRPNVRPRP	0.0221
RRIRQRPPRLPRPRPRPNWWPRP	0.00333
RRIRQRPPRLPRPRPRPNYGPRP	-0.299
RRIRQRPPRLPRPRPRPPDQPRP	1.82
RRIRQRPPRLPRPRPRPPGWPRP	-0.0951
RRIRQRPPRLPRPRPRPPIKPRP	-0.0648
RRIRQRPPRLPRPRPRPPKIPRP	0.156
RRIRQRPPRLPRPRPRPPLQPRP	0.218
RRIRQRPPRLPRPRPRPPMCPRP	-0.213
RRIRQRPPRLPRPRPRPPMLPRP	0.117
RRIRQRPPRLPRPRPRPPNWPRP	0.358
RRIRQRPPRLPRPRPRPPPFPRP	0.259
RRIRQRPPRLPRPRPRPPQDPRP	1.1
RRIRQRPPRLPRPRPRPPQQPRP	0.497
